According to article PMC12573921, “‘Mix-it-up’: accessible time-resolved cryo-EM on the millisecond timescale” (IUCrJ, 2025):

What was measured:
[1] = target: the molecule itself; assay: cryo-EM structure
[2] = target: the molecule itself; assay: cryo-EM structure; 8.6 µM GroEL + 17.1 µM GroES on the grid, 83.3 mM ATP with gold fiducials sprayed with MIU, 300 ms

Protein	binding result [1]	stoichiometry N [2]
Cowpea chlorotic mottle virus (CCMV) coat protein (natural protein, also called CCMV capsid; copies: 180) MSTVGTGKLTRAQRRAAARKNKRNTRVVQPVIVEPIASGQGKAIKAWTGYSVSKWTASCAAAEAKVTSAITISLPNELSSERNKQLKVGRVLLWLGLLPSVSGTVKSCVTETQTTAAASFQVALAVADNSKDVVAAMYPEAFKGITLEQLTADLTIYLYSSAALTEGDVIVHLEVEHVRPTFDDSFTPVY	binds	
E. coli GroES (natural protein, UniProt P0A6F9 1-97, looked up, GroES co-chaperonin of E. coli; purified as in Godek et al., 2024; source: T7 Express E. coli, Trc-promoted GroES/GroEL plasmid, purified (ion exchange, FFSP column at pH 4.6, Superdex 75); gift from the Steven Johnson laboratory) MNIRPLHDRVIVKRKEVETKSAGGIVLTGSAAAKSTRGEVLAVGNGRILENGEVKPLDVKVGDIVIFNDGYGVKSEKIDNEEVLIMSESDILAIVEA		7
